What was measured:
[1] = test system: PGT 127; test: Neoglycolipid microarray binding, PGT 127; conditions: PGT 127 at 10 μg/ml pre-complexed with biotinylated anti-human-IgG; 5 fmol/spot
Procedure: (§1) The microarrays (designated N-glycan-related Array Set 1) consisted of NGLs prepared by reductive amination (70) or oxime ligation (71) (Table S5). These were robotically printed onto nitrocellulose-coated glass slides as described (72), each at two levels (2 and 5 fmol/spot) in duplicate. The binding assays (70) were performed at ambient temperature. The PGTs 127 and 128 were pre-complexed with biotinylated anti-human-IgG (Vector) at a 1:3 ratio, w/w, before applying onto the slides at a final concentration of 10 μg/ml. Biotinylated ConA (Vector) was tested at 0.5 μg/ml. Binding was detected with Alexa-Fluor 647 labelled streptavidin (Molecular Probes) at 1 μg/ml. Microarray data analysis was performed with dedicated software. Binding signals were oligosaccharide dose-related. Results at 5 fmol/spot with selected oligomannose NGLs (prepared by reductive amination) are in FIG. 9A, and the full data with the 50 NGLs are shown in Table S6. Included for comparison are the results with human 2G12 (Polymun Scientific) taken from an earlier experiment performed using a different version of microarrays (73). Antibody 2G12 was analyzed at 1:10000 dilution (without pre-complexation), and the binding was detected with biotinylated anti-human-IgG followed by Alexa-Fluor 647 labelled streptavidin.

[2] = test system: PGT 128; test: Neoglycolipid microarray binding, PGT 128; conditions: PGT 128 at 10 μg/ml pre-complexed with biotinylated anti-human-IgG; 5 fmol/spot
Procedure: as §1

[3] = biological target: T1, plant lectin ConA (Canavalia ensiformis, UniProt P02866); test: Neoglycolipid microarray binding, ConA; conditions: biotinylated ConA at 0.5 μg/ml
T1 construct: purchased Vector
Procedure: as §1

[4] = test system: 2G12; conditions: 2G12 at 1:10000 dilution; earlier experiment, different version of the microarray; cited from earlier work
[5] = biological target: gp120 JR-CSF (HIV-1 JR-CSF) (UniProt P20871); test: gp120 ELISA
[6] = biological target: gp120 JR-FL (HIV-1 JR-FL); test: gp120 ELISA
[7] = biological target: HIV-1 JR-CSF envelope (Env) on pseudovirus (HIV-1 JR-CSF) (UniProt P20871); test: cell-based or functional assay
[8] = biological target: HIV-1 JR-FL envelope (Env) on pseudovirus (HIV-1 JR-FL); test: cell-based or functional assay
[9] = biological target: HIV-1 BaL envelope (Env) on pseudovirus (HIV-1 BaL); test: cell-based or functional assay

Compound | Fluorescence signal intensity 127 [1] | Fluorescence signal intensity 128 [2] | Fluorescence signal intensity ConA [3] | Fluorescence signal intensity 2G12 [4] | fold change in gp120 binding (EC50 variant/EC50 WT) [5] | fold change in gp120 binding (EC50 variant/EC50 WT) [6] | Fold change in neutralization (IC50 variant/IC50 WT antibody) [7] | Fold change in neutralization (IC50 variant/IC50 WT antibody) [8] | Fold change in neutralization (IC50 variant/IC50 WT antibody) [9]
CCCCCCCCCCCCCCCCOCC(COP(=O)(O)OCCNCC(NC(C)=O)C(O)C(OC1OC(CO)C(O)C(O)C1O)C(O)CO)OCCCCCCCCCCCCCCCC (centres unmarked) [Man1GN1-DH, Manβ-4GlcNAc-DH] | — (Signal less than 1) | — (Signal less than 1) | — (Signal less than 1) | 101 | – | – | – | – | –
CCCCCCCCCCCCCCCCOCC(COP(=O)(O)OCCNCC(OC1OC(CO)C(O)C(O)C1O)C(O)C(O)C(O)CO)OCCCCCCCCCCCCCCCC (stereo not drawn) [Man2(α2)-DH, Manα-2Man-DH] | — (Signal less than 1) | — (Signal less than 1) | — (Signal less than 1) | 73 | – | – | – | – | –
CCCCCCCCCCCCCCCCOCC(COP(=O)(O)OCCNCC(O)C(OC1OC(CO)C(O)C(O)C1O)C(O)C(O)CO)OCCCCCCCCCCCCCCCC (stereo not drawn) [Man2(α3)-DH, Manα-3Man-DH] | — (Signal less than 1) | 82 | — (Signal less than 1) | 136 | – | – | – | – | –
CCCCCCCCCCCCCCCCOCC(COP(=O)(O)OCCNCC(O)C(O)C(O)C(O)COC1OC(CO)C(O)C(O)C1O)OCCCCCCCCCCCCCCCC (stereo not drawn) [Man2(α6)-DH, Manα-6Man-DH] | — (Signal less than 1) | — (Signal less than 1) | 608 | 205 | – | – | – | – | –
CCCCCCCCCCCCCCCCOCC(COP(=O)(O)OCCNCC(NC(C)=O)C(O)C(OC1OC(CO)C(O)C(OC2OC(CO)C(O)C(O)C2O)C1O)C(O)CO)OCCCCCCCCCCCCCCCC (centres unmarked) [Man2GN1-DH, Manα-3Manβ-4GlcNAc-DH] | — (Signal less than 1) | 16 | 575 | — (Signal less than 1) | – | – | – | – | –
CCCCCCCCCCCCCCCCOCC(COP(=O)(O)OCCNCC(NC(C)=O)C(O)C(OC1OC(CO)C(OC2OC(COC3OC(CO)C(O)C(O)C3O)C(O)C(O)C2O)C(O)C1NC(C)=O)C(O)CO)OCCCCCCCCCCCCCCCC (centres unmarked) [Man2aGN2-DH, Manα-6Manβ-4GlcNAcβ-4GlcNAc-DH] | — (Signal less than 1) | — (Signal less than 1) | 1,923 | — (Signal less than 1) | – | – | – | – | –
CCCCCCCCCCCCCCCCOCC(COP(=O)(O)OCCNCC(O)C(OC1OC(CO)C(O)C(O)C1O)C(O)C(O)COC1OC(CO)C(O)C(O)C1O)OCCCCCCCCCCCCCCCC (stereo not drawn) [Man3(α3,α6)-DH] | — (Signal less than 1) | — (Signal less than 1) | 759 | — (Signal less than 1) | – | – | – | – | –
CCCCCCCCCCCCCCCCOCC(COP(=O)(O)OCCNCC(NC(C)=O)C(O)C(OC1OC(CO)C(OC2OC(COC3OC(CO)C(O)C(O)C3O)C(O)C(OC3OC(CO)C(O)C(O)C3O)C2O)C(O)C1NC(C)=O)C(O)COC1OC(C)C(O)C(O)C1O)OCCCCCCCCCCCCCCCC (centres unmarked) [Man3FGN2-DH] | — (Signal less than 1) | — (Signal less than 1) | 20,011 | 52 | – | – | – | – | –
CCCCCCCCCCCCCCCCOCC(COP(=O)(O)OCCNCC(NC(C)=O)C(O)C(OC1OC(CO)C(OC2OC(COC3OC(CO)C(O)C(O)C3O)C(O)C(OC3OC(CO)C(O)C(O)C3O)C2OC2OCC(O)C(O)C2O)C(O)C1NC(C)=O)C(O)CO)OCCCCCCCCCCCCCCCC (centres unmarked) [Man3XylGN2-DH] | — (Signal less than 1) | — (Signal less than 1) | 977 | — (Signal less than 1) | – | – | – | – | –
CCCCCCCCCCCCCCCCOCC(COP(=O)(O)OCCNCC(NC(C)=O)C(O)C(OC1OC(CO)C(OC2OC(COC3OC(CO)C(O)C(O)C3O)C(O)C(OC3OC(CO)C(O)C(O)C3O)C2O)C(O)C1NC(C)=O)C(O)CO)OCCCCCCCCCCCCCCCC (centres unmarked) [Man3aGN2-DH] | — (Signal less than 1) | — (Signal less than 1) | 14,192 | 24 | – | – | – | – | –
CCCCCCCCCCCCCCCCOCC(COP(=O)(O)OCCNCC(NC(C)=O)C(O)C(OC1OC(CO)C(OC2OC(COC3OC(CO)C(O)C(OC4OC(CO)C(O)C(O)C4O)C3O)C(O)C(OC3OC(CO)C(O)C(O)C3O)C2O)C(O)C1NC(C)=O)C(O)CO)OCCCCCCCCCCCCCCCC (centres unmarked) [Man4aGN2-DH] | — (Signal less than 1) | 26 | 2,885 | — (Signal less than 1) | – | – | – | – | –
PGT 128 IgG variant HC A30Q (antibody) | – | – | – | – | 1.9 fold | 1.5 fold | 2.4 fold | 11.4 fold | –
PGT 128 IgG variant HC A70D (antibody) | – | – | – | – | 0.5 fold | 1 fold | 1.9 fold | – | –
PGT 128 IgG variant HC C32A (antibody) | – | – | – | – | – | – | > 2000 fold | > 3000 fold | > 4000 fold
PGT 128 IgG variant HC C32A C52bA (antibody) | – | – | – | – | – | – | > 2000 fold | > 3000 fold | > 4000 fold
PGT 128 IgG variant HC C52bA (antibody) | – | – | – | – | – | – | > 2000 fold | > 3000 fold | > 4000 fold
PGT 128 IgG variant HC D100dA (antibody) | – | – | – | – | 0.1 fold | 0.1 fold | 0.5 fold | 0.3 fold | –
PGT 128 IgG variant HC F79A (antibody) | – | – | – | – | 0.5 fold | 0.6 fold | 0.9 fold | – | –
PGT 128 IgG variant HC K64A (antibody) | – | – | – | – | 0.8 fold | 0.4 fold | 1.2 fold | 1.3 fold | –
PGT 128 IgG variant HC K75A (antibody) | – | – | – | – | 2.1 fold | 1.6 fold | 2.9 fold | 2.9 fold | –
PGT 128 IgG variant HC P74A (antibody) | – | – | – | – | 0.9 fold | 0.8 fold | 0.8 fold | 1.2 fold | –
PGT 128 IgG variant HC S28A (antibody) | – | – | – | – | 0.8 fold | 0.6 fold | 1.2 fold | 0.9 fold | –
PGT 128 IgG variant HC T73A (antibody) | – | – | – | – | 1.6 fold | 2.2 fold | 1.6 fold | 77.6 fold | –
PGT 128 IgG variant HC T100cA (antibody) | – | – | – | – | 1.2 fold | 0.9 fold | 1.5 fold | 1.2 fold | –
PGT 128 IgG variant LC D95aA (antibody) | – | – | – | – | – | – | 68.5 fold | > 3000 fold | > 4000 fold
PGT 128 IgG variant LC N94A (antibody) | – | – | – | – | 0.7 fold | 1.1 fold | 3.5 fold | 1.3 fold | –
PGT 128 IgG variant LC W95A (antibody) | – | – | – | – | – | – | > 2000 fold | > 3000 fold | > 4000 fold
